Measurements from US20120328616A1 (Amgen, published 2012).

B1: 65C3.1 (antibody, V domains shown)
VH: QVQLQESGPGLVKPSETLSLTCTVSGGSISSYYWSWIRQPPGKGLEWIGYIYYTGSTNYNPSLKSRVTISVDTSKNQFSLKLSSVTAADTAVYYCAREYYYGSGSYYPWGQGTLVTVSS
VL: EMVMTQSPATLSVSPGERATLSCRASQSVSSQLAWYQEKPGRAPRLLIYGASNRAIDIPARLSGSGSGTEFTLTISSLQSEDFAVYYCQQYNNWPWTFGQGTKVEFKR
B2: 51E5.1 (antibody, V domains shown)
VH: QVQLQQWGAGLLKPSETLSLTCAVYGGSFSGYYWSWIRQPPGKGLEWIGELDHSGSINYNPSLKSRVTISVDTSKNQFSLKLTSVTAADTAVYYCARVLGSTLDYWGQGTLVTVSS
VL: DIQMTQSPSSLSASVGDRVTITCRASQDIRNDLGWYQQKPGKAPNRLIYAASSLQFGVPSRFSGSGSGTEFTLTISSLQPEDFATYYCLQHSSYPLTFGGGTRVEIKR

Experiments:
human FGFR1c = molecular target: T1, human FGFR1c (human, UniProt P11362 22-822); experiment: flow cytometry, transfected HEK293T; mock-transfected cells 705
T1 construct: Full length (GenBank NP-075598), expressed on transfected 293T cells; also called huFGFR1c; FGFR1c alone
Method: (§1) This solution was then added dropwise to 10 million HEK293T cells in 10 ml of media. 24 hours following transfection, the cells were washed and 50,000 cells were stained with each primary antibody, 50 μl of unpurified hybridoma supernatant was diluted 1:2 and used for staining cells. After a one hour incubation at 4° c., the cells were washed and an anti-Human Fc-specific secondary was added. Stained cells were then analyzed on a flow cytometer.

[1] = molecular target: T2, human FGFR1c/human β-Klotho complex (FGF21 receptor) (human, UniProt P11362 22-822); experiment: as above
T2 construct: Both full-length proteins co-expressed on cells (HEK293T, CHO, L6); also called HuFGFR1c/Hu β-Klotho; huFGF21R
Method: as §1

[2] = molecular target: T3, cynomologous monkey FGFR1c/cynomologous monkey β-Klotho (co-transfected) (cynomologous monkey); experiment: as above
T3 construct: whole, on cells; also called Cyno FGFR1c/Cyno β-Klotho
Method: as §1

[3] = molecular target: T2, human FGFR1c/human β-Klotho complex …; experiment: flow cytometry, transfected HEK293T; mock-transfected cells 723
Method: as §1

| Binder | GeoMean (human FGFR1c) | GeoMean [1] | GeoMean [2] | GeoMean [3] |
| --- | --- | --- | --- | --- |
| B1 | 719 | 18800 | 24600 |  |
| B2 |  |  |  | 21000 |
